For 7 molecules, Kd results are on record in US20240141007A1 (XILIO DEVELOPMENT, published 2024).

First the molecules themselves.
B1: UCM75 (Fc fusion)
chain 1: DKTHTCPPCPAPELLGGPSVFLFPPKPKDTLMISRTPEVTCVVVDVSHEDPEVKFNWYVDGVEVHNAKTKPREEQYASTYRVVSVLTVLHQDWLNGKEYKCKVSNKALPAPIEKTISKAKGQPREPQVYTLPPCRDELTKNQVSLWCLVKGFYPSDIAVEWESNGQPENNYKTTPPVLDSDGSFFLYSKLTVDKSRWQQGNVFSCSVMHEALHNRFTQKSLSLSPGGSPG
chain 2: DKTHTCPPCPAPELLGGPSVFLFPPKPKDTLMISRTPEVTCVVVDVSHEDPEVKFNWYVDGVEVHNAKTKPREEQYASTYRVVSVLTVLHQDWLNGKEYKCKVSNKALPAPIEKTISKAKGQPREPQVCTLPPSRDELTKNQVSLSCAVKGFYPSDIAVEWESNGQPENNYKTTPPVLDSDGSFFLVSKLTVDKSRWQQGNVFSCSVMHEALHNHYTVPLSLYSGG
B2: UCM81 (Fc fusion)
chain 1: B1 chain 1
chain 2: B1 chain 2 with V218P, P219A, L220N, S221L, L222V, Y223A, S224P, G225D, G226P
B3: UCM79 (Fc fusion)
chain 1: B1 chain 1
chain 2: DKTHTCPPCPAPELLGGPSVFLFPPKPKDTLMISRTPEVTCVVVDVSHEDPEVKFNWYVDGVEVHNAKTKPREEQYASTYRVVSVLTVLHQDWLNGKEYKCKVSNKALPAPIEKTISKAKGQPREPQVCTLPPSRDELTKNQVSLSCAVKGFYPSDIAVEWESNGQPENNYKTTPPVLDSDGSFFLVSKLTVDKSRWQQGNVFSCSVMHEALHNHYTAPAGLIVPYN
B4: UCM78 (Fc fusion)
chain 1: B1 chain 1
chain 2: B1 chain 2 with V218Q, P219R, L220P, S221L, L222A, Y223L, S224W, G225R, G226S
B5: UCM80 (Fc fusion)
chain 1: B1 chain 1
chain 2: B1 chain 2 with V218Q, L220V, Y223R, G226S
B6: UCM77 (Fc fusion)
chain 1: DKTHTCPPCPAPELLGGPSVFLFPPKPKDTLMISRTPEVTCVVVDVSHEDPEVKFNWYVDGVEVHNAKTKPREEQYASTYRVVSVLTVLHQDWLNGKEYKCKVSNKALPAPIEKTISKAKGQPREPQVYTLPPCRDELTKNQVSLWCLVKGFYPSDIAVEWESNGQPENNYKTTPPVLDSDGSFFLYSKLTVDKSRWQQGNVFSCSVMHEALHNRFTQKSLSLSPGGSPGAPTSSSTKKTQLQLEHLLLDLQMILNGINNYKNPKLTAMLTAKFAMPKKATELKHLQCLEEALKPLEEVLNLAQSKNFHLRPRDLISNINVIVLELKGSETTFMCEYADETATIVEFLNRWITFAQSIISTLT
chain 2: B1 chain 2 with V218R, P219A, L220A, S221A, L222V, Y223K, G225P
B7: UCM76 (Fc fusion)
chain 1: B6 chain 1
chain 2: DKTHTCPPCPAPELLGGPSVFLFPPKPKDTLMISRTPEVTCVVVDVSHEDPEVKFNWYVDGVEVHNAKTKPREEQYASTYRVVSVLTVLHQDWLNGKEYKCKVSNKALPAPIEKTISKAKGQPREPQVCTLPPSRDELTKNQVSLSCAVKGFYPSDIAVEWESNGQPENNYKTTPPVLDSDGSFFLVSKLTVDKSRWQQGNVFSCSVMHEALHNHYTQMPYDLYHPNFMLTQPHSVSESPGKTVTISCTRSSGSIASNYVQWYQQRPGSSPTTVIYEDNQRPSGVPDRFSGSIDSSSNSASLTISGLKTEDEADYYCQTYDSIDVYFGGGTKLTVLGGGGGSGGGGSGGGGSGGGGSQLQLQESGPGLVKPSQTLSLTCTVSGGSISSGGYYWSWIRQHPGKGLEWIGYIYKSGSAYYSPSLKSRVTISVDTSKNQFSLKLSSVTAADTAVYYCARTPTVTGDWFDPWGRGTLVTVSS

Residue numbers refer to the chain shown, from its start.

The target of the test is T1, human FcRn (human, UniProt P55899 24-297; P61769 21-119).
T1 construct: also called hFcRn
T1 sequence (P55899 24-297 limits assumed, chain 1 of 2): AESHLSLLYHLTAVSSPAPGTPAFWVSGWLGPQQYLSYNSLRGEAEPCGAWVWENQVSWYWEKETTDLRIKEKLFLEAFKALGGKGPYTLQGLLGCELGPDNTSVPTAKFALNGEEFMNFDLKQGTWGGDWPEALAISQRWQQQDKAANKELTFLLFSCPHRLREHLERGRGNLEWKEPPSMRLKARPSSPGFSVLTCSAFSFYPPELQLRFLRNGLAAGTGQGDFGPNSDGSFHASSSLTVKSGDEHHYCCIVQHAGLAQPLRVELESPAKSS
T1 sequence (P61769 21-119 limits assumed, chain 2 of 2): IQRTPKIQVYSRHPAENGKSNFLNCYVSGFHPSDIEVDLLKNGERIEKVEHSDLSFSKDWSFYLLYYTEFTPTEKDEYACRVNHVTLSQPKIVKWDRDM
Kind of test: SPR, hFcRn as ligand. On the technique in general: Surface plasmon resonance follows binding to a sensor surface in real time, without labels.
Text: Surface Plasmon Resonance (SPR) protein binding assay was used to measure FcRn binding.
As to B1, the Kd – broadly, a measure of binding affinity in units of concentration – stood at 1490 nM.
As for B2, the Kd was determined as 1100 nM.
The same measure for B3: 1310 nM; for B4: 181 nM; for B5: 565 nM.
For the molecule B6, the dissociation constant (Kd) was determined as 312 nM.
The same measure for B7: 551 nM.
